Reference: the supplement of paper PMC6757056
± gives the standard deviation of the averaged measurements.

B1: library; a variant is named by its letters at N, in order (parent)
chain: GCUGUCACCGGUGUAUUACCCUAGUGGUCGACCGGUCUGAUGAGUCUNNNNNNAGACGAAACAGC

Key:
hypoxanthine [1] = variants of: B1; assay: normalized RNA/DNA level with ligand (relative to sTRSVctl = 100) (log10 (% of sTRSVctl)); ligand: hypoxanthine (xanthine aptamer); higher = less ribozyme self-cleavage, higher mRNA level; settings: ligand concentration (+) RNA-Seq: 5 mM, HEK293T, reporter: mCherry (pCS4076), ligand present: yes
Summary of the method: (§1)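 Total RNA, extracted with EDTA 72 h after HEK293T cells were transfected with 4 µg per 6-well well of reporter-linked ribozyme switch library plasmids, was reverse-transcribed, amplified, barcoded and sequenced. Ligand, if used, was added 1 h before transfection. RNA level was derived from RNA reads divided by DNA reads and normalized to a spiked-in non-cleaving sequence or to the top sequences. This was multiplied by 100 and log10-transformed, with the top set of 25 sequences and a ≥100 DNA read minimum.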

hypoxanthine [2] = variants of: B1; assay: normalized RNA/DNA level without ligand (relative to sTRSVctl = 100) (log10 (% of sTRSVctl)); ligand: hypoxanthine (xanthine aptamer); higher = less ribozyme self-cleavage, higher mRNA level; settings: HEK293T, reporter: mCherry (pCS4076), ligand present: no
Summary of the method: as §1

| Variant | normalized RNA/DNA level with ligand (log10) (hypoxanthine [1]) | normalized RNA/DNA level without ligand (log10) (hypoxanthine [2]) |
| --- | --- | --- |
| GCUGUCACCGGUGUAUUACCCUAGUGGUCGACCGGUCUGAUGAGUCUCUCAGCAGACGAAACAGC | 2 ± 0.068 | 1.96 ± 0.01 |
| GCUGUCACCGGUGUAUUACCCUAGUGGUCGACCGGUCUGAUGAGUCUUUGCAUAGACGAAACAGC | 1.98 ± 0.024 | 1.862 ± 0.004 |
| GCUGUCACCGGUGUAUUACCCUAGUGGUCGACCGGUCUGAUGAGUCUCCCAGCAGACGAAACAGC | 1.999 ± 0.0073 | 1.877 ± 0.013 |
| GCUGUCACCGGUGUAUUACCCUAGUGGUCGACCGGUCUGAUGAGUCUUUCGACAGACGAAACAGC | 1.9 ± 0.074 | 1.781 ± 0.0058 |
| GCUGUCACCGGUGUAUUACCCUAGUGGUCGACCGGUCUGAUGAGUCUACAAUUAGACGAAACAGC | 1.939 ± 0.019 | 1.736 ± 0.0095 |
| GCUGUCACCGGUGUAUUACCCUAGUGGUCGACCGGUCUGAUGAGUCUCGUAACAGACGAAACAGC | 1.95 ± 0.047 | 1.77 ± 0.038 |
| GCUGUCACCGGUGUAUUACCCUAGUGGUCGACCGGUCUGAUGAGUCUUUAAUUAGACGAAACAGC | 1.94 ± 0.041 | 1.84 ± 0.041 |
| GCUGUCACCGGUGUAUUACCCUAGUGGUCGACCGGUCUGAUGAGUCUGUUGGCAGACGAAACAGC | 1.9 ± 0.029 | 1.51 ± 0.025 |
| GCUGUCACCGGUGUAUUACCCUAGUGGUCGACCGGUCUGAUGAGUCUGUACCCAGACGAAACAGC | 1.9 ± 0.045 | 1.8666 ± 0.0018 |
| GCUGUCACCGGUGUAUUACCCUAGUGGUCGACCGGUCUGAUGAGUCUUCUACCAGACGAAACAGC | 1.96 ± 0.029 | 1.913 ± 0.0037 |
| GCUGUCACCGGUGUAUUACCCUAGUGGUCGACCGGUCUGAUGAGUCUGUCUGGAGACGAAACAGC | 1.878 ± 0.016 | 1.48 ± 0.0028 |
| GCUGUCACCGGUGUAUUACCCUAGUGGUCGACCGGUCUGAUGAGUCUAGUCAAAGACGAAACAGC | 1.89 ± 0.051 | 1.8 ± 0.035 |
| GCUGUCACCGGUGUAUUACCCUAGUGGUCGACCGGUCUGAUGAGUCUGUGCCUAGACGAAACAGC | 1.98 ± 0.042 | 1.891 ± 0.0069 |
| GCUGUCACCGGUGUAUUACCCUAGUGGUCGACCGGUCUGAUGAGUCUAGCAGUAGACGAAACAGC | 1.83 ± 0.03 | 1.44 ± 0.036 |
| GCUGUCACCGGUGUAUUACCCUAGUGGUCGACCGGUCUGAUGAGUCUCAGGACAGACGAAACAGC | 1.88 ± 0.063 | 1.782 ± 0.01 |
| GCUGUCACCGGUGUAUUACCCUAGUGGUCGACCGGUCUGAUGAGUCUUAUUCGAGACGAAACAGC | 1.929 ± 0.0088 | 1.74 ± 0.072 |
| GCUGUCACCGGUGUAUUACCCUAGUGGUCGACCGGUCUGAUGAGUCUAGCGCAAGACGAAACAGC | 1.94 ± 0.019 | 1.758 ± 0.0078 |
| GCUGUCACCGGUGUAUUACCCUAGUGGUCGACCGGUCUGAUGAGUCUCAUAUCAGACGAAACAGC | 1.95 ± 0.0088 | 1.9 ± 0.012 |
| GCUGUCACCGGUGUAUUACCCUAGUGGUCGACCGGUCUGAUGAGUCUAGAGUUAGACGAAACAGC | 1.905 ± 0.0059 | 1.8267 ± 0.0011 |
| GCUGUCACCGGUGUAUUACCCUAGUGGUCGACCGGUCUGAUGAGUCUAGUCCCAGACGAAACAGC | 1.94 ± 0.026 | 1.931 ± 0.012 |
| GCUGUCACCGGUGUAUUACCCUAGUGGUCGACCGGUCUGAUGAGUCUGCGGUUAGACGAAACAGC | 1.919 ± 0.018 | 1.72 ± 0.056 |
